Assay results reported in article doi:10.1101/2022.04.02.486822v1.
Numbering of substitutions follows the chain as printed. In names and notes the source's numbering stands.

B1: EcGhrA (Escherichia coli K-12; W45F) (protein)
chain: MDIIFYHPTFDTQWWIEALRKAIPQARVRAWKSGDNDSADYALVFHPPVEMLAGRDLKAVFALGAGVDSILSKLQAHPEMLNPSVPLFRLEDTGMGEQMQEYAVSQVLHWFRRFDDYRIQQNSSHWQPLPEYHREDFTIGILGAGVLGSKVAQSLQTWRFPLRCWSRTRKSWPGVQSFAGREELSAFLSQCRVLINLLPNTPETVGIINQQLLEKLPDGAYLLNLARGVHVVEDDLLAALDSGKVKGAMLDVFNREPLPPESPLWQHPRVTITPHVAAITRPAEAVEYISRTIAQLEKGERVCGQVDRARGY
B2: EcGhrA (Escherichia coli K-12) (protein)
chain: B1 chain with F45W

What was measured:
Assay in all cases: purified protein
Settings in all cases: 200 µM NADPH, 50 mM HEPES, pH 7.5, 22 °C
purified protein [1] = substrate: O=C(O)CC(=O)C(=O)O
purified protein [2] = substrate: O=C(O)CCC(=O)C(=O)O
purified protein [3] = substrate: N=C(N)NCCCC(=O)C(=O)O
purified protein [4] = substrate: O=CC(=O)O; format: biochemical, Escherichia coli
purified protein [5] = substrate: O=CC(=O)O

Protein | Km (purified protein [1]) [mM] | kcat (purified protein [1]) [s⁻¹] | Km (purified protein [2]) [mM] | kcat (purified protein [2]) [s⁻¹] | Km (purified protein [3]) [mM] | kcat (purified protein [3]) [s⁻¹] | Km (purified protein [4]) [mM] | kcat (purified protein [4]) [s⁻¹] | Km (purified protein [5]) [mM] | kcat (purified protein [5]) [s⁻¹]
B1 | 6.3 ± 0.2 | 1.8 ± 0.04 | 11.5 ± 0.8 | 0.26 ± 0.01 | 43.2 ± 8.4 | 4.0 ± 0.7 | 10.8 ± 6.1 | 120.0 ± 63.0 |  | 
B2 | 1.3 ± 0.2 | 1.9 ± 0.1 | 4.0 ± 0.4 | 0.30 ± 0.02 | 8.8 ± 0.8 | 6.6 ± 0.4 |  |  | 2.2 ± 1.7 | 40.0 ± 23.0
